The source of these data is CN108727490A (UNIV TSINGHUA; GUANGZHOU 8TH PEOPLES HOSPITAL, dated 2018).

The target of the test is T1, E-His6融合蛋白 (寨卡病毒 (Zika virus), UniProt A0A024B7W1 292-693).
T1 construct: also called 寨卡病毒的E蛋白; E蛋白
Kind of test: ELISA screen of memory B cell culture supernatants on coated E-His6 fusion protein; the antibody genes were cloned from positive wells.

T1 sequence (A0A024B7W1 292-693, tags left off): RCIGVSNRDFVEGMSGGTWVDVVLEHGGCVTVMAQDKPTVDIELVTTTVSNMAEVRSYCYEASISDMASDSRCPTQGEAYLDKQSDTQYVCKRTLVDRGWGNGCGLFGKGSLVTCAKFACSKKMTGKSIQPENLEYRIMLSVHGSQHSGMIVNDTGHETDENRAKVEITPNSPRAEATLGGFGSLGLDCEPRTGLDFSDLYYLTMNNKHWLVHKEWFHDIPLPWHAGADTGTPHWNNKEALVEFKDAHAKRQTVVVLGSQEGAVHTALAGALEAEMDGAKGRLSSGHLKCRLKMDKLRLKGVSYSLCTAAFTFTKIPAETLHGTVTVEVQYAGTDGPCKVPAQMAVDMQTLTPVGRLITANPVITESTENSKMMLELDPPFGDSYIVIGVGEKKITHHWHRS

B1: 单克隆抗体ZK2B10 (antibody, human IgG1, lambda, V domains shown)
VH: EVQLVQSGAEVKKPGASVKVSCKASGYTFTSGHTFPSYDINWVRQATGQGLEWMGWMNPNRGNTGYAQKFQGRVTMTRNTSINTAYMELSSLRSEDTAVYYCARVRSGTNYGSYYYYYYGMDVWGQGTTVTVSS
VL: SYELTQPPSASGTPGQRVTISCSGSSSNIGNNYVHWYQQLPGSAPKLLIYRNNQRPSGVPDRFSGSKSGTSGSLAISGLRSEDEADYYCASWDDSLSGHWVFGGGTKVTVLG
notes: also called ZK2B10抗体; IgG抗体
With B1, the binding result is listed as “binds”.
